Test results taken from the supplement of paper PMC12764529.
± gives the half width of the 95% confidence interval.

Tests used:
[1] = folding stability dG unfold from chymotrypsin proteolysis; higher = more stable
Method in brief: (§1)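 Sequencing followed digestion of designed mini-proteins with trypsin and chymotrypsin, each at 11 concentrations in threefold dilutions together with a no-protease condition. The mini-proteins were under 80 residues, had no cysteine, sat in a PA-tagged cDNA display construct, and were kept only if AlphaFold2 dimer inter-PAE was above 15. From the counts, Bayesian fitting gave K50, and unfolding free energy was derived against a sequence-predicted unfolded-state K50 and a shared folded-state K50, per protease or combined.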

[2] = folding stability dG unfold from trypsin proteolysis; higher = more stable
Method in brief: as §1

[3] = folding stability dG unfold (combined trypsin and chymotrypsin); higher = more stable
Method in brief: as §1

SAGGSAGGMVLRITLPNGEVIEIPLEELGLSEEERKRRLAELLAEELRKLFPGKEIKVEVVELPSAGGSAGG [r6_164_TrROS_Hall]
folding stability dG unfold [1]: 4 ± 0.057 kcal/mol | folding stability dG unfold [2]: 3.54 ± 0.08 kcal/mol | folding stability dG unfold [3]: 3.83 ± 0.14 kcal/mol

SAGGSAGGMVRFDPAGGRLFLDGVPVELSEVLSVESLEEEGRVRVEALLVDGSRLEFEIPKEALSAGGSAGG [r6_682_JUSTAS]
folding stability dG unfold [1]: 2.323 ± 0.021 kcal/mol | folding stability dG unfold [2]: 1.73 ± 0.036 kcal/mol | folding stability dG unfold [3]: 2.13 ± 0.029 kcal/mol

SAGGSAGGMVTIASITFEEDPEGGITVTVYLPSNGKTITVPVPADTPEAEARARAEAAARAYAASAGGSAGG [r6_628_JUSTAS]
folding stability dG unfold [1]: 1.49 ± 0.098 kcal/mol | folding stability dG unfold [2]: 0.894 ± 0.028 kcal/mol | folding stability dG unfold [3]: 1.28 ± 0.15 kcal/mol

SAGGSAGGMVTSSVSALPDGSYRLTITYPDGTVLTFEFDSEEEVAALLAELAEALPADAAVPLASAGGSAGG [r6_464_JUSTAS]
folding stability dG unfold [1]: 1.65 ± 0.046 kcal/mol | folding stability dG unfold [2]: 1.64 ± 0.059 kcal/mol | folding stability dG unfold [3]: 1.71 ± 0.065 kcal/mol

SAGGSAGGMVVERKDMDPEEAVEDTKKRIKEETGWEVTEITVTEFPEEPRLVVTIKVKKPPEKSSAGGSAGG [r6_462_JUSTAS]
folding stability dG unfold [1]: 0.71 ± 0.016 kcal/mol | folding stability dG unfold [2]: -0.287 ± 0.11 kcal/mol | folding stability dG unfold [3]: 0.408 ± 0.098 kcal/mol

SAGGSAGGMVVRVTLPDGTVVTFEFESEEEFRKEFAASLGLAPDEIPEERIVSVERLSPEEYRSSAGGSAGG [r6_588_JUSTAS]
folding stability dG unfold [1]: 1.64 ± 0.11 kcal/mol | folding stability dG unfold [2]: 1.26 ± 0.039 kcal/mol | folding stability dG unfold [3]: 1.59 ± 0.086 kcal/mol

SAGGSAGGMYKVTITVTDPATGKTVATETLTLESEEEAKEYVEAVKKELPSSLTVSATITKVPESAGGSAGG [r6_690_JUSTAS]
folding stability dG unfold [1]: 4.41 ± 0.072 kcal/mol | folding stability dG unfold [2]: 4.77 ± 0.46 kcal/mol | folding stability dG unfold [3]: 4.58 ± 0.12 kcal/mol

SAGGSAGGMYTKTYNVPPDWKVTATATAPGGATVTDSSAPNGNFTLTFPASLADATTFTVTVTPSAGGSAGG [r6_237_JUSTAS]
folding stability dG unfold [1]: 0.641 ± 0.13 kcal/mol | folding stability dG unfold [2]: -0.869 ± 0.47 kcal/mol | folding stability dG unfold [3]: 0.285 ± 0.14 kcal/mol

SAGGSAGGNEIAEKLKKKYPNIKIKSVKINPKEGKIEIDLGFPKDAKPETIKKIEKEIEELAKKSAGGSAGG [r6_97_TrMRF]
folding stability dG unfold [1]: 0.442 ± 0.14 kcal/mol | folding stability dG unfold [2]: 0.578 ± 0.056 kcal/mol | folding stability dG unfold [3]: 0.646 ± 0.34 kcal/mol

SAGGSAGGNGPPDIKIKIEILEVHPGHRDPDGKYYFRVRVEIEYPNKPVKVDFPMPADDAKDLISAGGSAGG [r6_724_TrROS]
folding stability dG unfold [1]: 4.2 ± 0.092 kcal/mol | folding stability dG unfold [2]: 2.93 ± 0.11 kcal/mol | folding stability dG unfold [3]: 3.66 ± 0.15 kcal/mol

SAGGSAGGNLTLPPDNIKRIWHVGDGHWLIKMDDNVLMINPGNGKIQTVKKEDADKLPPGDPFFSAGGSAGG [r6_890_TrROS]
folding stability dG unfold [1]: 0.0704 ± 0.19 kcal/mol | folding stability dG unfold [2]: -0.473 ± 0.2 kcal/mol | folding stability dG unfold [3]: 0.0115 ± 0.15 kcal/mol

SAGGSAGGNPDLVITFPDGVKITVHPDGTITITRFIPGRDVPVGTRTITVPAPDGIPLEELLKYSAGGSAGG [r6_572_TrMRF]
folding stability dG unfold [1]: 1.2 ± 0.059 kcal/mol | folding stability dG unfold [2]: 0.887 ± 0.062 kcal/mol | folding stability dG unfold [3]: 1.13 ± 0.13 kcal/mol

SAGGSAGGNPVRYRVTITVTSPTGGSPVIELELDDPAELAEVEALAAELAAAPVTTTVTVEPIGSAGGSAGG [r6_743_JUSTAS]
folding stability dG unfold [1]: 0.584 ± 0.14 kcal/mol | folding stability dG unfold [2]: 1.02 ± 0.049 kcal/mol | folding stability dG unfold [3]: 0.807 ± 0.072 kcal/mol

SAGGSAGGNVLIPKSKLEEFLKNIPFEVLVLNPENPRLEIARVEADDIFVDDDYALILLTVSNDSAGGSAGG [r6_753_TrMRF]
folding stability dG unfold [1]: 0.221 ± 0.18 kcal/mol | folding stability dG unfold [2]: 1 ± 0.032 kcal/mol | folding stability dG unfold [3]: 0.742 ± 0.12 kcal/mol

SAGGSAGGPEIKVLEVRKLPDGSFEFIVEVPPGDAEKIKSGTVVKIKFGDKEYDVTVEVIPTEGSAGGSAGG [r6_372_TrMRF]
folding stability dG unfold [1]: 2.52 ± 0.051 kcal/mol | folding stability dG unfold [2]: 1.73 ± 0.038 kcal/mol | folding stability dG unfold [3]: 2.24 ± 0.045 kcal/mol

SAGGSAGGPFVLKFPDPKNMNKLQEAASDHGMNMNRNPEKGTHVINFGGNMLDELQELPGIEIVSAGGSAGG [r6_726_TrROS]
folding stability dG unfold [1]: -1.1 ± 0.61 kcal/mol | folding stability dG unfold [2]: -1.05 ± 0.15 kcal/mol | folding stability dG unfold [3]: -0.769 ± 0.24 kcal/mol

SAGGSAGGPIDLDDIKIEEIEHERNPNGMMYHEVTIRFPGGKIPVWFHPNMSLDNAVDMLRAFISAGGSAGG [r6_233_TrROS]
folding stability dG unfold [1]: 0.814 ± 0.11 kcal/mol | folding stability dG unfold [2]: 1.4 ± 0.092 kcal/mol | folding stability dG unfold [3]: 1.19 ± 0.11 kcal/mol

SAGGSAGGPKKIKITNIEYPNGYWRVKISLPNGKEVEYPMDSPDDALDWAEDDGIKEVEIEKYNSAGGSAGG [r6_601_TrROS]
folding stability dG unfold [1]: 0.358 ± 0.28 kcal/mol | folding stability dG unfold [2]: -0.429 ± 0.49 kcal/mol | folding stability dG unfold [3]: 0.159 ± 0.18 kcal/mol

SAGGSAGGPLVLRIETPEDKVLVLVLPEEAEKLPPKELAEIAAKEFAALPGVKEVKVEIAPLPLSAGGSAGG [r6_710_TrMRF]
folding stability dG unfold [1]: 1.11 ± 0.15 kcal/mol | folding stability dG unfold [2]: 0.885 ± 0.058 kcal/mol | folding stability dG unfold [3]: 1.03 ± 0.12 kcal/mol

SAGGSAGGPLYRVLILLKKPNGEPLLLPLVAEDPEKALELAERLRKEYEEKGYELVAVEIYEFPSAGGSAGG [r6_869_TrMRF]
folding stability dG unfold [1]: 5.26 ± 0.13 kcal/mol | folding stability dG unfold [2]: 4.37 ± 0.22 kcal/mol | folding stability dG unfold [3]: 5.22 ± 0.22 kcal/mol

SAGGSAGGPMSAEELARFLANEFHKKHGMPPGHRVKIPVKWRDPEDGNEQEVTIEIPIRMPKGDSAGGSAGG [r6_799_TrROS]
folding stability dG unfold [1]: 1.4 ± 0.083 kcal/mol | folding stability dG unfold [2]: 0.32 ± 0.17 kcal/mol | folding stability dG unfold [3]: 1.2 ± 0.16 kcal/mol

SAGGSAGGPNIRIIIKPDPENGTLKIWFVHPEPGRIQKYEFNMNGKWKIKEPVGPMKPGDPGLLSAGGSAGG [r6_149_TrROS]
folding stability dG unfold [1]: 1.52 ± 0.33 kcal/mol | folding stability dG unfold [2]: 0.668 ± 0.16 kcal/mol | folding stability dG unfold [3]: 1.33 ± 0.34 kcal/mol

SAGGSAGGPPDIVTLPIWIGGLKVEIMVYPDGSVTIMFRFPDWYYMITFPLKNGKIEIEWVPLKSAGGSAGG [r6_555_TrROS]
folding stability dG unfold [1]: 3.54 ± 0.1 kcal/mol | folding stability dG unfold [2]: 3.16 ± 0.11 kcal/mol | folding stability dG unfold [3]: 3.35 ± 0.22 kcal/mol

SAGGSAGGPSPNQPERQQVQVEAKIRFPDPNGKEWTIEITAYGSVGDARDAARSLAREIKNGKISAGGSAGG [r6_944_TrROS]
folding stability dG unfold [1]: -0.782 ± 0.49 kcal/mol | folding stability dG unfold [2]: -0.494 ± 0.17 kcal/mol | folding stability dG unfold [3]: -0.484 ± 0.16 kcal/mol

SAGGSAGGPSYTIQFPYPPGMPPWRLQKLLEEAGYPPPEIEYNPKNGSHWITFSPEVRDAFKELSAGGSAGG [r6_307_TrROS]
folding stability dG unfold [1]: 0.845 ± 0.17 kcal/mol | folding stability dG unfold [2]: 0.476 ± 0.1 kcal/mol | folding stability dG unfold [3]: 0.676 ± 0.21 kcal/mol

SAGGSAGGPVITFPWNDIPELLERARENGDPEYYIRVSPDDPGNFTIMPPEEAEENGMPVIPLDSAGGSAGG [r6_710_TrROS]
folding stability dG unfold [1]: -0.656 ± 0.46 kcal/mol | folding stability dG unfold [2]: -0.976 ± 0.45 kcal/mol | folding stability dG unfold [3]: -0.668 ± 0.33 kcal/mol

SAGGSAGGPVSVDPSTGTVTITVPPGTATPVVEAIAAALGLPVETATTPLPDGTTTVTVTIPAASAGGSAGG [r6_419_JUSTAS]
folding stability dG unfold [1]: 0.816 ± 0.1 kcal/mol | folding stability dG unfold [2]: 0.733 ± 0.1 kcal/mol | folding stability dG unfold [3]: 0.844 ± 0.22 kcal/mol

SAGGSAGGRFTVQFRVPGTLEEAREKAEEIAENLPPNFKDVEVDIEPHPKNGWIRVEVQIKMKKSAGGSAGG [r6_164_TrROS]
folding stability dG unfold [1]: 1.07 ± 0.16 kcal/mol | folding stability dG unfold [2]: 0.991 ± 0.16 kcal/mol | folding stability dG unfold [3]: 1.01 ± 0.31 kcal/mol

SAGGSAGGRVVLSAEEIEKLKPGDEIELLVRDKETGEWRRVKARVVRIERVGDRVYVEIEIEPESAGGSAGG [r6_753_TrROS_Hall]
folding stability dG unfold [1]: 4.19 ± 0.057 kcal/mol | folding stability dG unfold [2]: 4.53 ± 0.25 kcal/mol | folding stability dG unfold [3]: 4.29 ± 0.12 kcal/mol

SAGGSAGGRWYIMIEIRFPGNGRQFSFMIPIPPGDEVDIKLDELAEWFGFPNVKVDIQVMPLEKSAGGSAGG [r6_722_TrROS]
folding stability dG unfold [1]: 4.75 ± 0.12 kcal/mol | folding stability dG unfold [2]: 3.41 ± 0.3 kcal/mol | folding stability dG unfold [3]: 4.45 ± 0.18 kcal/mol

SAGGSAGGSAAEVEVETLELEIDGVKITVTRVRNADGELLYFARIEVRPAPPPPPVSLEDLSAGGSAGGSAG [r3_68_TrROS_Hall]
folding stability dG unfold [1]: 3.25 ± 0.074 kcal/mol | folding stability dG unfold [2]: 3.02 ± 0.093 kcal/mol | folding stability dG unfold [3]: 3.23 ± 0.12 kcal/mol

SAGGSAGGSAAKVISVNPETGEVVVEYPDGSVGYFKVKGGVVEEVRSSPVLPVPEDDPLFTSAGGSAGGSAG [r3_406_TrMRF]
folding stability dG unfold [1]: 1.2 ± 0.088 kcal/mol | folding stability dG unfold [2]: 1.05 ± 0.032 kcal/mol | folding stability dG unfold [3]: 1.15 ± 0.077 kcal/mol

SAGGSAGGSAAMTVSEVSSSPDPSSDYLSFEVRTTETVKVPGTKAPVTTTVTTTPTKVSKLLSAGGSAGGSA [r18_41_JUSTAS]
folding stability dG unfold [1]: -0.177 ± 0.25 kcal/mol | folding stability dG unfold [2]: -0.237 ± 0.12 kcal/mol | folding stability dG unfold [3]: -0.111 ± 0.12 kcal/mol

SAGGSAGGSAANVTREPRFDPSTNLVRTLVRFPDGSVREEILEITKNPDGTLTYKRFERPPSAGGSAGGSAG [r3_474_JUSTAS]
folding stability dG unfold [1]: 1.59 ± 0.18 kcal/mol | folding stability dG unfold [2]: 0.383 ± 0.12 kcal/mol | folding stability dG unfold [3]: 1.19 ± 0.14 kcal/mol

SAGGSAGGSAATKQITYTPPGSNRTYSFTATLTEEDPVTGRKLLELTLPDGTPITLPEGELGSAGGSAGGSA [r18_334_JUSTAS]
folding stability dG unfold [1]: 0.0349 ± 0.08 kcal/mol | folding stability dG unfold [2]: 0.191 ± 0.061 kcal/mol | folding stability dG unfold [3]: 0.163 ± 0.067 kcal/mol

SAGGSAGGSAAVILPEGTLYFTLPDGSRAAATVDPATGTVHIRLYSPDGVPLAEADIPIDPSAGGSAGGSAG [r3_447_TrMRF]
folding stability dG unfold [1]: 2.26 ± 0.037 kcal/mol | folding stability dG unfold [2]: 0.947 ± 0.024 kcal/mol | folding stability dG unfold [3]: 1.83 ± 0.07 kcal/mol
